The values below come from PMC5577222.

The target of assay [1] is microtubules polymerized from porcine brain tubulin (taxol-stabilized) (porcine) (UniProt P02550). Kind of assay: single-molecule TIRF microscopy; rhodamine-labelled taxol-stabilized microtubules held on the surface by anti-beta-tubulin; eGFP-DRG1 at 0.08, 0.4, 4, 40 nM in BRB80 assay buffer with 1 mM GTP, 25 °C; residence times from kymographs, not corrected for bleaching.

Assay [2] shares this target. Briefly: co-sedimentation; 1 µM recombinant DRG1 with different concentrations of taxol-stabilized microtubules; Coomassie quantified with ImageJ, binding curve fitted.

B1: eGFP-DRG1 (Xenopus laevis DRG1 with N-terminal eGFP) (natural protein)
chain: MSGTLARIAEIEAEMARTQKNKATAYHLGLLKARLAKLRRELITPKGGGGGGPGEGFDVAKTGDARIGFVGFPSVGKSTLLSNLAGVYSEVAAYEFTTLTTVPGVVRYKGAKIQLLDLPGIIEGAKDGKGRGRQVIAVARTCNLILIVLDVLKPLGHKKIIENELEGFGIRLNKQPPNIGFKKKDKGGINLTATCAQSELDNDTVKSILAEYKIHNADITLRSDATADDLIDVVEGNRVYIPCIYVLNKIDQISIEELDIIYKVPHCVPISAHHRWNFDDLLEKIWDYLQLVRIYTKPKGQLPDYTSPVVLPCSHTAAEDFCTKIHKNLIKEFKYALVWGSSVKHNPQKVGKDHVLEDEDVIQIVKK
As for B1, in assay [1], the residence time, diffusive population, 4 nM eGFP-DRG1 turned out to be 2.2 s; the residence time, diffusive population, 40 nM eGFP-DRG1 was found to be 2.6 s; the residence time, immobile fraction, 0.08 nM eGFP-DRG1 is 12 s; the residence time, immobile fraction, 0.4 nM eGFP-DRG1 came to 12.4 s. Further, in assay [1], the residence time, immobile fraction, 4 nM eGFP-DRG1 is 11.1 s and the residence time, immobile fraction, 40 nM eGFP-DRG1 worked out at 5.4 s.

B2: recombinant Xenopus laevis Developmentally regulated GTP binding protein 1 (DRG1), full length (natural protein)
chain: MSGTLARIAEIEAEMARTQKNKATAYHLGLLKARLAKLRRELITPKGGGGGGPGEGFDVAKTGDARIGFVGFPSVGKSTLLSNLAGVYSEVAAYEFTTLTTVPGVVRYKGAKIQLLDLPGIIEGAKDGKGRGRQVIAVARTCNLILIVLDVLKPLGHKKIIENELEGFGIRLNKQPPNIGFKKKDKGGINLTATCAQSELDNDTVKSILAEYKIHNADITLRSDATADDLIDVVEGNRVYIPCIYVLNKIDQISIEELDIIYKVPHCVPISAHHRWNFDDLLEKIWDYLQLVRIYTKPKGQLPDYTSPVVLPCSHTAAEDFCTKIHKNLIKEFKYALVWGSSVKHNPQKVGKDHVLEDEDVIQIVKK
Turning to B2, in assay [2], the Kd is 470 nM.

Usually Kd stands for the free concentration of one partner at which half of the binding sites on the other are occupied at equilibrium, for simple one-to-one binding.
